In paper PMC9601868 one finds Kd data, which are given here for 18 substances.

pKd: −log10 of the molar value.

The first assay deals with ZFP932 KRAB domain (5–76), AviTagged, monobiotinylated (murine). In words: SPR; Biacore X100, Sensor Chip CAP; monobiotinylated KRAB domain immobilised; concentration series of Trim28 RBCC, 60 s injections; 10 mM TRIS/HCl pH 8.0, 300 mM NaCl, 0.1 mM TCEP, 0.005% tween 20; equilibrium analysis.
Sequence of ZFP932 KRAB domain (5–76), AviTagged, monobiotinylated (murine) (E9QAG8 5-76): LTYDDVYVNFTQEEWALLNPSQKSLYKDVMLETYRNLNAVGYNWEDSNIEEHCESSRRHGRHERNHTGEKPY
For the substance “Trim28 RBCC (58–418) L301A (from UniProt Q62318 58-418) (domain or fragment)”, the pKd is 5.19.

Consider “Trim28 RBCC (58–418) L301S (from UniProt Q62318 58-418) (domain or fragment)”, for which the pKd was 4.51.

Take “Trim28 RBCC (58–418) K305E (from UniProt Q62318 58-418) (domain or fragment)”: the pKd was 4.80.

Another assay has the same target. In words: SPR; Biacore X100, Sensor Chip CAP; monobiotinylated KRAB domain immobilised (~100 RU); 1 μM Trim28 RBCC injected 60 s, 600 s wash; 10 mM TRIS/HCl pH 8.0, 300 mM NaCl, 0.1 mM TCEP, 0.005% tween 20; kinetic analysis, two-state reaction model.
Consider “Trim28 RBCC (58–418) M298S (from UniProt Q62318 58-418) (domain or fragment)”, for which the pKd is 6.17.

“Trim28 RBCC (58–418) K290E (from UniProt Q62318 58-418) (domain or fragment)” showed a pKd of 6.88.

“Trim28 RBCC (58–418) I300S (from UniProt Q62318 58-418) (domain or fragment)” gave a pKd of 7.45.

The substance “Trim28 RBCC (58–418) R312A (from UniProt Q62318 58-418) (domain or fragment)” showed a pKd of 7.56.

Turning to “Trim28 RBCC (58–418) I300A (from UniProt Q62318 58-418) (domain or fragment)”, the pKd was 7.58.

“Trim28 RBCC (58–418) M304A (from UniProt Q62318 58-418) (domain or fragment)” gave a pKd of 7.62.

For the substance “Trim28 RBCC (58–418) K297A (from UniProt Q62318 58-418) (domain or fragment)”, the pKd was 7.27.

Take “Trim28 RBCC (58–418) R312E (from UniProt Q62318 58-418) (domain or fragment)”: the pKd is 6.67.

On to “Trim28 RBCC (58–418), wild type (from UniProt Q62318 58-418) (domain or fragment)”, for which the pKd was 7.84.

“Trim28 RBCC (58–418) K290A (from UniProt Q62318 58-418) (domain or fragment)” had a pKd of 7.43.

In turn, “Trim28 RBCC (58–418) V294S (from UniProt Q62318 58-418) (domain or fragment)” had a pKd of 6.50.

In the case of “Trim28 RBCC (58–418) K305A (from UniProt Q62318 58-418) (domain or fragment)”, the pKd was 7.51.

Turning to “Trim28 RBCC (58–418) M298A (from UniProt Q62318 58-418) (domain or fragment)”, the pKd was 6.49.

As to “Trim28 RBCC (58–418) V294A (from UniProt Q62318 58-418) (domain or fragment)”, the pKd is 6.95.

With “Trim28 RBCC (58–418) M304S (from UniProt Q62318 58-418) (domain or fragment)”, the pKd was 7.69.
